Assay results taken from patent US6949349.
Positions of bridges follow the written chain, without caps; N, C: chain ends. Non-standard residues stand in square brackets, D forms with d. No end group written: not given here. Aib = CC(C)(N)C(=O)O

T1: IGFBP-1 (human, UniProt P08833 26-259)
T1 construct: Biotinylated in the ELISA assays; also called rhIGFBP-1
T1 sequence (looked up): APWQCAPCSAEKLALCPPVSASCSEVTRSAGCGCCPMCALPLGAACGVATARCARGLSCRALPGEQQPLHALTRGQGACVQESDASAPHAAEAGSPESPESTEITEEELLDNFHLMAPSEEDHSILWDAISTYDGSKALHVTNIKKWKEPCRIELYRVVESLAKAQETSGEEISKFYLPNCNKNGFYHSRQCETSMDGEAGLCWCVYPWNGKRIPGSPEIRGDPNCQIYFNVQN


Experiments:
IGFBP-3 = molecular target: T2, IGFBP-3 (human, UniProt P17936 28-291); assay: BIAcore competition: peptide inhibits IGFBP-3 binding to IGF-I; ratio to bp3-01-ox
T2 construct: also called rhIGFBP-3
T2 sequence (P17936 28-291 limits assumed): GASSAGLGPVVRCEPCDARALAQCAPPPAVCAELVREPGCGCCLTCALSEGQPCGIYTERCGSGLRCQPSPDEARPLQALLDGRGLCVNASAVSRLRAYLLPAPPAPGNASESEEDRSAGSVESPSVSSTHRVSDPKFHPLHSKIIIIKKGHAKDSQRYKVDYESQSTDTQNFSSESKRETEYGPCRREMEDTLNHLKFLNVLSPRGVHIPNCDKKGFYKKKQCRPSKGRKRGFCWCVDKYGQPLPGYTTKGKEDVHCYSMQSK

IGFBP-1 [1] = molecular target: T1, IGFBP-1; assay: biotinylated-IGFBP-1 ELISA: peptide inhibits IGFBP-1 binding to IGF-I; ratio to bp1-01 (wt)
IGFBP-1 [2] = molecular target: T1, IGFBP-1; assay: BIAcore competition: peptide inhibits IGFBP-1 binding to IGF-I; ratio to bp1-01 (wt)
IGFBP-1 [3] = molecular target: T1, IGFBP-1; assay: BIAcore competition: peptide inhibits IGFBP-1 binding to IGF-II; ratio to bp1-01 (wt)

| Binder | IC50 (mut)/IC50 (wt) (IGFBP-1 [1]) [ratio] | IC50 (mut)/IC50 (wt) (IGFBP-1 [2]) [ratio] | IC50 (mut)/IC50 (wt) (IGFBP-1 [3]) [ratio] | further results |
| --- | --- | --- | --- | --- |
| Ac-SEEVCWPVAEWYLCN-NH2 (disulfide 5-14 (inferred)) [bp3-40] |  |  |  | IC50 (mut)/IC50 (wt) (IGFBP-3): 0.33 ratio |
| CRAGPLQWLCEK[Aib]FG (disulfide 1-10, Non-natural variant of bp1-01; X stands for aib) [bp1-01 Y13aib] | 7.1 |  |  |  |
| CR[dA]GPLQWLCEKYFG (disulfide 1-10 (inferred)) [bp1-01 A3a] | 34 |  |  |  |
| SEEVCWPVAEWYLCN-NH2 (disulfide 5-14 (inferred)) [bp3-39] |  |  |  | IC50 (mut)/IC50 (wt) (IGFBP-3): 0.33 ratio |
| CRAGP[dA]QWLCEKYFG (disulfide 1-10, Non-natural variant of bp1-01 (a = D-alanine)) [bp1-01 L6a] | 400 |  |  |  |
| CAAGPLQWLCEKYFG (disulfide 1-10 (inferred), Ala-scan variant of bp1-01; termini and disulfide not restated) [bp1-01 R2A] |  | 0.9 | 0.9 |  |
| CRAGPLQWLCEKY[Aib]G (disulfide 1-10, Non-natural variant of bp1-01; X stands for aib) [bp1-01 F14aib] | 3 |  |  |  |
| CRAGPLQWLC[Aib]KYFG (disulfide 1-10, Non-natural variant of bp1-01; X stands for aib) [bp1-01 E11aib] | 1 |  |  |  |
| CRA[dA]PLQWLCEKYFG (disulfide 1-10, Non-natural variant of bp1-01 (a = D-alanine)) [bp1-01 G4a] | 0.6 |  |  |  |
| WPVAEWYLCN [bp3-24 (SEQ ID NO:107)] |  |  |  | IC50 (mut)/IC50 (wt) (IGFBP-3): > 500 ratio |

More lines, main results first:

| IC50 (mut)/IC50 (wt) (IGFBP-1 [1]) [ratio] | IC50 (mut)/IC50 (wt) (IGFBP-1 [2]) [ratio] | IC50 (mut)/IC50 (wt) (IGFBP-1 [3]) [ratio] | Binder | further results |
| --- | --- | --- | --- | --- |
| 400 |  |  | CRAGPLQW[Aib]CEKYFG (disulfide 1-10, Non-natural variant of bp1-01; X stands for aib) [bp1-01 L9aib] |  |
| 2 |  |  | CRAGPLQWLCE[Aib]YFG (disulfide 1-10, Non-natural variant of bp1-01; X stands for aib) [bp1-01 K12aib] |  |
|  | 2.9 | 2.4 | CRAGPLQWLCAKYFG (Ala-scan variant of bp1-01) [bp1-01 E11A] |  |
|  | 7.9 | 5.3 | CRAGPLQWLCEAYFG (Ala-scan variant of bp1-01) [bp1-01 K12A] |  |
|  | 0.7 | 0.6 | CRAGPLAWLCEKYFG (Ala-scan variant of bp1-01) [bp1-01 Q7A] |  |
|  | 6.2 | 5.8 | CRAGPLQWLCEKYAG (Ala-scan variant of bp1-01) [bp1-01 F14A] |  |
|  | 30.3 | 34.7 | CRAGPAQWLCEKYFG (Ala-scan variant of bp1-01) [bp1-01 L6A] |  |
|  | 12.5 | 14.6 | CRAGPLQWLCEKAFG (Ala-scan variant of bp1-01) [bp1-01 Y13A] |  |
|  | 33.2 | 29.7 | CRAGPLQWACEKYFG (Ala-scan variant of bp1-01) [bp1-01 L9A] |  |
|  | 7.4 | 6.4 | CRAGPLQALCEKYFG (Ala-scan variant of bp1-01) [bp1-01 W8A] |  |
| 50 |  |  | C[dA]AGPLQWLCEKYFG (disulfide 1-10, Non-natural variant of bp1-01 (a = D-alanine)) [bp1-01 R2a] |  |
| 1.6 |  |  | CRAGPL[Aib]WLCEKYFG (disulfide 1-10, Non-natural variant of bp1-01; X stands for aib) [bp1-01 Q7 aib] |  |
| 24 |  |  | CRAGPLQ[Aib]LCEKYFG (disulfide 1-10, Non-natural variant of bp1-01; X stands for aib) [bp1-01 W8aib] |  |
